T1: human PAC1 receptor (human, UniProt P41586 21-468)
T1 sequence: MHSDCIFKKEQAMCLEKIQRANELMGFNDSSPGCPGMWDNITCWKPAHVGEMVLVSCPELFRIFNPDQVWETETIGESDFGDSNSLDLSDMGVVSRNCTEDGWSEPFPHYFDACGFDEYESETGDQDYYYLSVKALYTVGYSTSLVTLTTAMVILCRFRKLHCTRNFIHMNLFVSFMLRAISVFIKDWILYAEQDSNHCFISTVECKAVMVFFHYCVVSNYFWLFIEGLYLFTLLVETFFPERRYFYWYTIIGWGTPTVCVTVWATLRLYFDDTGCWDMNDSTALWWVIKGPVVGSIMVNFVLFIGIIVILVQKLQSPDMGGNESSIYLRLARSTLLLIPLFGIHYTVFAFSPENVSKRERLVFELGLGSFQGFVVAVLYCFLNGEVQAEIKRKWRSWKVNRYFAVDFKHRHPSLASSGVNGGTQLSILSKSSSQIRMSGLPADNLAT


Tests used:
human CGRP receptor = human CGRP receptor (human, UniProt Q16602 23-461; O60894 27-148); experiment: cell-based or functional assay
human CGRP receptor, sequence (Q16602 23-461 limits assumed, chain 1 of 2): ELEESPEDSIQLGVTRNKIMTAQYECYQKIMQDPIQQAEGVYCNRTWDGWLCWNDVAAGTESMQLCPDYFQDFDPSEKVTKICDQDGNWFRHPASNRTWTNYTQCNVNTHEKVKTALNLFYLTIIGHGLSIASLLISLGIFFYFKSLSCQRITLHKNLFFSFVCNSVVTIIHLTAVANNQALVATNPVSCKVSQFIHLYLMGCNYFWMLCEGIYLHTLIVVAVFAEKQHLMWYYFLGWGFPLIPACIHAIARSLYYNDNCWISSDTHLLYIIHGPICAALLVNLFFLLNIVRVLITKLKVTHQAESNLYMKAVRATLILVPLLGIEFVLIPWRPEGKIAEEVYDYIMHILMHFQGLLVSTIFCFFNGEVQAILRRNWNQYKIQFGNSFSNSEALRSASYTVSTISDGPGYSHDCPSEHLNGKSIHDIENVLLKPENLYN
human CGRP receptor, sequence (O60894 27-148 limits assumed, chain 2 of 2): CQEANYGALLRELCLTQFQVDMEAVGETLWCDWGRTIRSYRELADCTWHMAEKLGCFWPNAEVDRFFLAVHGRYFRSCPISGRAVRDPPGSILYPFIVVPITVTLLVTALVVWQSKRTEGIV

human PAC1 receptor = biological target: T1, human PAC1 receptor; experiment: cell-based or functional assay
Further: test concentration or dose not given here.

Binder | % inhibition of human CGRPR (human CGRP receptor) | % inhibition of human PAC1 (human PAC1 receptor)
iPS:328036 (bispecific antibody, human IgG1, kappa, N297G) light 1: not shown heavy 1: not shown light 2: EIVLTQSPGTLSLSPGERATLSCRASQSVSSGYLTWYQQKPGQAPRLLIYGASSRATGIPDRFSGSGSGTDFTLTISRLEPEDFAVYYCQQYGNSLSRFGQGTKLEIKRTVAAPSVFIFPPSDEQLKSGTASVVCLLNNFYPREAKVQWKVDNALQSGNSQESVTEQDSKDSTYSLKSTLTLSKADYEKHKVYACEVTHQGLSSPVTKSFNRGEC heavy 2: not shown | 79% | 21%
iPS:326669 (bispecific antibody, human IgG2, kappa) light 1: EIVLTQSPATLSLSPGERATLSCRASQSVGRSLHWYQQKPGQAPRLLIKYASQSLSGIPARFSGSGSGTDFTLTISSLEPEDFAVYYCHQSSRLPFTFGPGTKVDIKRTVAAPSVFIFPPSDEQLKSGTASVVCLLNNFYPREAKVQWKVDNALQSGNSQESVTEQDSKDSTYSLESTLTLSKADYEKHKVYACEVTHQGLSSPVTKSFNRGEC heavy 1: QVQLVESGGGVVQPGRSLRLSCAASGFTFSRFAMHWVRQAPGKGLEWVAVISYDGGNKYYAESVKGRFTISRDNSKNTLYLQMNSLRAEDTALFYCARGYDVLTGYPDYWGQGTLVTVSSASTKGPSVFPLAPCSRSTSESTAALGCLVKDYFPEPVTVSWNSGALTSGVHTFPAVLQSSGLYSLKSVVTVPSSNFGTQTYTCNVDHKPSNTKVDKTVERKCCVECPPCPAPPVAGPSVFLFPPKPKDTLMISRTPEVTCVVVDVSHEDPEVQFNWYVDGVEVHNAKTKPREEQFNSTFRVVSVLTVVHQDWLNGKEYKCKVSNKGLPAPIEKTISKTKGQPREPQVYTLPPSREEMTKNQVSLTCLVDGFYPSDIAVEWESNGQPENNYDTTPPMLDSDGSFFLYSDLTVDKSRWQQGNVFSCSVMHEALHNHYTQKSLSLSPGK light 2: EIVLTQSPGTLSLSPGERATLSCRASQSVSSGYLTWYQQKPGQAPRLLIYGASSRATGIPDRFSGSGSGTDFTLTISRLEPEDFAVYYCQQYGNSLSRFGQGTKLEIKRTVAAPSVFIFPPSDEQLKSGTASVVCLLNNFYPREAKVQWKVDNALQSGNSQESVTEQDSKDSTYSLKSTLTLSKADYEKHKVYACEVTHQGLSSPVTKSFNRGEC heavy 2: QVQLVESGGGVVQPGRSLRLSCAASGFTFSSYGMHWVRQAPGKGLEWVAVIWYDGSNKYYADSVKGRFIISRDKSKNTLYLQMNSLRAEDTAVYYCARAGGIAAAGLYYYYGMDVWGQGTTVTVSSASTKGPSVFPLAPCSRSTSESTAALGCLVKDYFPEPVTVSWNSGALTSGVHTFPAVLQSSGLYSLESVVTVPSSNFGTQTYTCNVDHKPSNTKVDKTVERKCCVECPPCPAPPVAGPSVFLFPPKPKDTLMISRTPEVTCVVVDVSHEDPEVQFNWYVDGVEVHNAKTKPREEQFNSTFRVVSVLTVVHQDWLNGKEYKCKVSNKGLPAPIEKTISKTKGQPREPQVYTLPPSRKKMTKNQVSLTCLVKGFYPSDIAVEWESNGQPENNYKTTPPMLKSDGSFFLYSKLTVDKSRWQQGNVFSCSVMHEALHNHYTQKSLSLSPGK | 74% | 85%
iPS:326648 (bispecific antibody, human IgG2, kappa, lambda) light 1: EIVLTQSPATLSLSPGERATLSCRASQSVGRSLHWYQQKPGQAPRLLIKYASQSLSGIPARFSGSGSGTDFTLTISSLEPEDFAVYYCHQSSRLPFTFGPGTKVDIKRTVAAPSVFIFPPSDEQLKSGTASVVCLLNNFYPREAKVQWKVDNALQSGNSQESVTEQDSKDSTYSLESTLTLSKADYEKHKVYACEVTHQGLSSPVTKSFNRGEC heavy 1: QVQLVESGGGVVQPGRSLRLSCAASGFTFSRFAMHWVRQAPGKGLEWVAVISYDGGNKYYAESVKGRFTISRDNSKNTLYLQMNSLRAEDTALFYCARGYDVLTGYPDYWGQGTLVTVSSASTKGPSVFPLAPCSRSTSESTAALGCLVKDYFPEPVTVSWNSGALTSGVHTFPAVLQSSGLYSLKSVVTVPSSNFGTQTYTCNVDHKPSNTKVDKTVERKCCVECPPCPAPPVAGPSVFLFPPKPKDTLMISRTPEVTCVVVDVSHEDPEVQFNWYVDGVEVHNAKTKPREEQFNSTFRVVSVLTVVHQDWLNGKEYKCKVSNKGLPAPIEKTISKTKGQPREPQVYTLPPSREEMTKNQVSLTCLVDGFYPSDIAVEWESNGQPENNYDTTPPMLDSDGSFFLYSDLTVDKSRWQQGNVFSCSVMHEALHNHYTQKSLSLSPGK light 2: not shown heavy 2: not shown | 73% | 92%
iPS:328042 (bispecific antibody, human IgG1, kappa, lambda, N297G) light 1: DIQMTQSPSSLSASVGDRITITCRASQSISRYLNWYQQKPGKAPKLLIYAASSLQSGIPSRFSGSGSGTDFTLTINSLQPEDFATYFCQQSYSPPFTFGQGTKVDIKRTVAAPSVFIFPPSDEQLKSGTASVVCLLNNFYPREAKVQWKVDNALQSGNSQESVTEQDSKDSTYSLESTLTLSKADYEKHKVYACEVTHQGLSSPVTKSFNRGEC heavy 1: not shown light 2: not shown heavy 2: not shown | 85% | 20%
iPS:328040 (bispecific antibody, human IgG1, kappa, lambda, N297G) light 1: DIQMTQSPSSLSASVGDRITITCRASQSISRYLNWYQQKPGKAPKLLIYAASSLQSGIPSRFSGSGSGTDFTLTINSLQPEDFATYFCQQSYSPPFTFGQGTKVDIKRTVAAPSVFIFPPSDEQLKSGTASVVCLLNNFYPREAKVQWKVDNALQSGNSQESVTEQDSKDSTYSLESTLTLSKADYEKHKVYACEVTHQGLSSPVTKSFNRGEC heavy 1: not shown light 2: not shown heavy 2: not shown | 74% | 70%
iPS:328045 (bispecific antibody, human IgG1, kappa, lambda, N297G) light 1: DIQMTQSPSSLSASVGDRITITCRASQSISRYLNWYQQKPGKAPKLLIYAASSLQSGIPSRFSGSGSGTDFTLTINSLQPEDFATYFCQQSYSPPFTFGQGTKVDIKRTVAAPSVFIFPPSDEQLKSGTASVVCLLNNFYPREAKVQWKVDNALQSGNSQESVTEQDSKDSTYSLESTLTLSKADYEKHKVYACEVTHQGLSSPVTKSFNRGEC heavy 1: not shown light 2: not shown heavy 2: not shown | 67% | 29%
iPS:328047 (bispecific antibody, human IgG1, kappa, lambda, N297G) light 1: DIQMTQSPSSLSASVGDRITITCRASQSISRYLNWYQQKPGKAPKLLIYAASSLQSGIPSRFSGSGSGTDFTLTINSLQPEDFATYFCQQSYSPPFTFGQGTKVDIKRTVAAPSVFIFPPSDEQLKSGTASVVCLLNNFYPREAKVQWKVDNALQSGNSQESVTEQDSKDSTYSLESTLTLSKADYEKHKVYACEVTHQGLSSPVTKSFNRGEC heavy 1: not shown light 2: QSVLTQPPSVSAAPGQKVTISCSGSSSNIGNNYVSWYQQLPGTAPKLLIYDNNKRPSGIPDRFSGSKSGTSTTLGITGLQTGDEADYYCGTWDSRLSAVVFGGGTKLTVLGQPKANPTVTLFPPSSEELQANKATLVCLISDFYPGAVTVAWKADGSPVKAGVETTKPSKQSNNKYAAKSYLSLTPEQWKSHRSYSCQVTHEGSTVEKTVAPTECS heavy 2: QVQLVESGGGVVQPGRSLRLSCAASGFTFSSFGMHWVRQAPGKGLEWVAVISFDGSIKYSVDSVKGRFTISRDNSKNTLFLQMNSLRAEDTAVYYCARDRLNYYDSSGYYHYKYYGMAVWGQGTTVTVSSASTKGPSVFPLAPSSKSTSGGTAALGCLVKDYFPEPVTVSWNSGALTSGVHTFPAVLQSSGLYSLESVVTVPSSSLGTQTYICNVNHKPSNTKVDKKVEPKSCDKTHTCPPCPAPELLGGPSVFLFPPKPKDTLMISRTPEVTCVVVDVSHEDPEVKFNWYVDGVEVHNAKTKPCEEQYGSTYRCVSVLTVLHQDWLNGKEYKCKVSNKALPAPIEKTISKAKGQPREPQVYTLPPSRKEMTKNQVSLTCLVKGFYPSDIAVEWESNGQPENNYKTTPPVLKSDGSFFLYSKLTVDKSRWQQGNVFSCSVMHEALHNHYTQKSLSLSPGK | 78% | 33%
iPS:328037 (bispecific antibody, human IgG1, kappa, lambda, N297G) light 1: DIQMTQSPSSLSASVGDRITITCRASQSISRYLNWYQQKPGKAPKLLIYAASSLQSGIPSRFSGSGSGTDFTLTINSLQPEDFATYFCQQSYSPPFTFGQGTKVDIKRTVAAPSVFIFPPSDEQLKSGTASVVCLLNNFYPREAKVQWKVDNALQSGNSQESVTEQDSKDSTYSLESTLTLSKADYEKHKVYACEVTHQGLSSPVTKSFNRGEC heavy 1: not shown light 2: not shown heavy 2: not shown | 71% | 25%
iPS:328044 (bispecific antibody, human IgG1, kappa, lambda, N297G) light 1: not shown heavy 1: not shown light 2: not shown heavy 2: EVQLVESGGGLVKPGGSLRLSCAASGFTFSNAWMSWVRQAPGKELEWVGRIKSKTDGGTTDYTAPVKGRFTISRDDSKNTLYLQMNSLKAEDTAVYYCTTDRTGYSISWSSYYYYYGMDVWGQGTTVTVSSASTKGPSVFPLAPSSKSTSGGTAALGCLVKDYFPEPVTVSWNSGALTSGVHTFPAVLQSSGLYSLESVVTVPSSSLGTQTYICNVNHKPSNTKVDKKVEPKSCDKTHTCPPCPAPELLGGPSVFLFPPKPKDTLMISRTPEVTCVVVDVSHEDPEVKFNWYVDGVEVHNAKTKPCEEQYGSTYRCVSVLTVLHQDWLNGKEYKCKVSNKALPAPIEKTISKAKGQPREPQVYTLPPSRKEMTKNQVSLTCLVKGFYPSDIAVEWESNGQPENNYKTTPPVLKSDGSFFLYSKLTVDKSRWQQGNVFSCSVMHEALHNHYTQKSLSLSPGK | 77% | 5%
iPS:328039 (bispecific antibody, human IgG1, kappa, lambda, N297G) light 1: not shown heavy 1: not shown light 2: not shown heavy 2: EVQLVESGGGLVKPGGSLRLSCAASGFTFGNAWMSWVRQAPGKELEWVGRIKSKTDGGTTDYAAPVKGRFTISRDDSKNTLYLQMNSLKTEDTAVYFCTTDRTGYSISWSSYYYYYGMDVWGQGTTVTVSSASTKGPSVFPLAPSSKSTSGGTAALGCLVKDYFPEPVTVSWNSGALTSGVHTFPAVLQSSGLYSLESVVTVPSSSLGTQTYICNVNHKPSNTKVDKKVEPKSCDKTHTCPPCPAPELLGGPSVFLFPPKPKDTLMISRTPEVTCVVVDVSHEDPEVKFNWYVDGVEVHNAKTKPCEEQYGSTYRCVSVLTVLHQDWLNGKEYKCKVSNKALPAPIEKTISKAKGQPREPQVYTLPPSRKEMTKNQVSLTCLVKGFYPSDIAVEWESNGQPENNYKTTPPVLKSDGSFFLYSKLTVDKSRWQQGNVFSCSVMHEALHNHYTQKSLSLSPGK | 74% | 9%
